This is an account of results in paper PMC9653487, “Structural basis for mechanotransduction in a potassium-dependent mechanosensitive ion channel” (Nature Communications, 2022).

Series [1] concerns the molecule itself. Put plainly: cryo-EM structure; single-particle cryo-EM of EcMscK G924S in 0.02% GDN, 20 mM Tris-HCl pH 8.0, 150 mM NaCl or 150 mM KCl (datasets combined); refined with C7 symmetry; closed, intermediate and open classes.
Series [2] deals with the molecule itself. Put plainly: cryo-EM structure; single-particle cryo-EM of WT EcMscK in 0.02% GDN, 20 mM Tris-HCl pH 8.0, 150 mM NaCl; refined with C7 symmetry.

B1: E. coli MscK (EcMscK) G924S gain-of-function mutant channel (natural protein, UniProt P77338 34-1120, looked up)
chain: RASSNGDLPTKADLQAQLDSLNKQKDLSAQDKLVQQDLTDTLATLDKIDRIKEETVQLRQKVAEAPEKMRQATAALTALSDVDNDEETRKILSTLSLRQLETRVAQALDDLQNAQNDLASYNSQLVSLQTQPERVQNAMYNASQQLQQIRSRLDGTDVGETALRPSQKVLMQAQQALLNAEIDQQRKSLEGNTVLQDTLQKQRDYVTANSARLEHQLQLLQEAVNSKRLTLTEKTAQEAVSPDEAARIQANPLVKQELEINQQLSQRLITATENGNQLMQQNIKVKNWLERALQSERNIKEQIAVLKGSLLLSRILYQQQQTLPSADELENMTNRIADLRLEQFEVNQQRDALFQSDAFVNKLEEGHTNEVNSEVHDALLQVVDMRRELLDQLNKQLGNQLMMAINLQINQQQLMSVSKNLKSILTQQIFWVNSNRPMDWDWIKAFPQSLKDEFKSMKITVNWQKAWPAVFIAFLAGLPLLLIAGLIHWRLGWLKAYQQKLASAVGSLRNDSQLNTPKAILIDLIRALPVCLIILAVGLILLTMQLNISELLWSFSKKLAIFWLVFGLCWKVLEKNGVAVRHFGMPEQQTSHWRRQIVRISLALLPIHFWSVVAELSPLHLMDDVLGQAMIFFNLLLIAFLVWPMCRESWRDKESHTMRLVTITVLSIIPIALMVLTATGYFYTTLRLAGRWIETVYLVIIWNLLYQTVLRGLSVAARRIAWRRALARRQNLVKEGAEGAEPPEEPTIALEQVNQQTLRITMLLMFALFGVMFWAIWSDLITVFSYLDSITLWHYNGTEAGAAVVKNVTMGSLLFAIIASMVAWALIRNLPGLLEVLVLSRLNMRQGASYAITTILNYIIIAVGAMTVFGSLGVSWDKLQWLAAALSVGLSFGLQEIFGNFVSGLIILFERPVRIGDTVTIGSFSGTVSKIRIRATTITDFDRKEVIIPNKAFVTERLINWSLTDTTTRLVIRLGVAYGSDLEKVRKVLLKAATEHPRVMHEPMPEVFFTAFGASTLDHELRLYVRELRDRSRTVDELNRTIDQLCRENDINIAFNQLEVHLHNEKGDEVTEVKRDYKGDDPTPAVG
notes: E. coli mechanosensitive channel MscK, 1120 amino acids, full length, with the point mutation G924S made by site-directed mutagenesis; Homoheptamer; closed, intermediate and open conformations came from the same sample; A few residues of the PreScission site are left at the C-terminus after cleavage; The deposited models lack unresolved parts, and some segments are polyalanine; also called G924S …
As to B1, the “stoichiometry N” value in series [1] was found to be 7.

B2: E. coli MscK (EcMscK), full-length wild-type channel (natural protein, UniProt P77338 34-1120, looked up)
chain: RASSNGDLPTKADLQAQLDSLNKQKDLSAQDKLVQQDLTDTLATLDKIDRIKEETVQLRQKVAEAPEKMRQATAALTALSDVDNDEETRKILSTLSLRQLETRVAQALDDLQNAQNDLASYNSQLVSLQTQPERVQNAMYNASQQLQQIRSRLDGTDVGETALRPSQKVLMQAQQALLNAEIDQQRKSLEGNTVLQDTLQKQRDYVTANSARLEHQLQLLQEAVNSKRLTLTEKTAQEAVSPDEAARIQANPLVKQELEINQQLSQRLITATENGNQLMQQNIKVKNWLERALQSERNIKEQIAVLKGSLLLSRILYQQQQTLPSADELENMTNRIADLRLEQFEVNQQRDALFQSDAFVNKLEEGHTNEVNSEVHDALLQVVDMRRELLDQLNKQLGNQLMMAINLQINQQQLMSVSKNLKSILTQQIFWVNSNRPMDWDWIKAFPQSLKDEFKSMKITVNWQKAWPAVFIAFLAGLPLLLIAGLIHWRLGWLKAYQQKLASAVGSLRNDSQLNTPKAILIDLIRALPVCLIILAVGLILLTMQLNISELLWSFSKKLAIFWLVFGLCWKVLEKNGVAVRHFGMPEQQTSHWRRQIVRISLALLPIHFWSVVAELSPLHLMDDVLGQAMIFFNLLLIAFLVWPMCRESWRDKESHTMRLVTITVLSIIPIALMVLTATGYFYTTLRLAGRWIETVYLVIIWNLLYQTVLRGLSVAARRIAWRRALARRQNLVKEGAEGAEPPEEPTIALEQVNQQTLRITMLLMFALFGVMFWAIWSDLITVFSYLDSITLWHYNGTEAGAAVVKNVTMGSLLFAIIASMVAWALIRNLPGLLEVLVLSRLNMRQGASYAITTILNYIIIAVGAMTVFGSLGVSWDKLQWLAAALSVGLGFGLQEIFGNFVSGLIILFERPVRIGDTVTIGSFSGTVSKIRIRATTITDFDRKEVIIPNKAFVTERLINWSLTDTTTRLVIRLGVAYGSDLEKVRKVLLKAATEHPRVMHEPMPEVFFTAFGASTLDHELRLYVRELRDRSRTVDELNRTIDQLCRENDINIAFNQLEVHLHNEKGDEVTEVKRDYKGDDPTPAVG
notes: E. coli mechanosensitive channel MscK, 1120 amino acids, full length, codon-optimized synthetic DNA; Homoheptamer; A few residues of the PreScission site are left at the C-terminus after cleavage; also called WT EcMscK; WT channel; not shown: GFP, C-terminal, cleaved; His10, C-terminal, cleaved
B2: the binding result in series [2] is listed as “binds”.
